Source: paper doi:10.1101/2024.10.12.618001, “High yield purification of an Isoleucine zipper modified CD95 Ligand with either biotin or DNA-oligomer binding domain for efficient Cell Apoptosis Induction” (bioRxiv, 2024)
“And” between values parts separate entries of the source, which are not always exact repeats. Identical values can stand only once.

B2: CD95-His receptor protein (Sino Biological) (receptor, UniProt P25445 26-173, looked up)
chain: QVTDINSKGLELRKTVTTVETQNLEGLHHDGQFCHKPCPPGERKARDCTVNGDEPDCVPCQEGKEYTDKAHFSSKCRRCRLCDEGHGLEVEINCTRTQNTKCRCKPNFFCNSTVCEHCDPCTKCEHGIIKECTLTSNTKCKEEGSRSN
notes: CD95 (Fas, Apo-1) receptor protein with His-tag; also called Fas; Apo-1; source: bought: Sino Biological

Columns and labels:
[1] = target: B2; assay: ELISA; CD95-His coated at 2 µg/ml in PBS overnight at 4 °C; ligand 0.1-100 nM in 0.5 % BSA/PBST, 2 h at r.t.; detected with anti-CD95L antibody and HRP secondary; 4-parameter logistic fit; details: both partners purified
[2] = target: T1, soluble CD95L (Enzo Life Sciences) (UniProt P48023 130-281); assay: as above; details: both partners purified
T1 construct: soluble CD95 ligand (CD95L, Fas ligand); The conclusion calls it the unmodified CD95L; also called sCD95L; source: bought: Enzo Life Sciences
T1 sequence (looked up): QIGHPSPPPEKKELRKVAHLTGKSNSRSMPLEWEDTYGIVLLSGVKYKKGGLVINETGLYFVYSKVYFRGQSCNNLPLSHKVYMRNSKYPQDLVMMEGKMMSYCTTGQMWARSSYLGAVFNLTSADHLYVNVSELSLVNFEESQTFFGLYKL

[3] = target: the molecule itself; assay: SEC; Superdex 75 10/300 GL, PBS pH 7.4, 0.3 ml/min; 350 µl CD95L-IZ-His at 0.409 mg/ml; protein standard mix for sizes; curve fitted with three Gaussians

B1: CD95L-IZ-biotin (CD95L-IZ after His-tag cleavage, biotinylated at the extra cysteine) (ligand)
chain: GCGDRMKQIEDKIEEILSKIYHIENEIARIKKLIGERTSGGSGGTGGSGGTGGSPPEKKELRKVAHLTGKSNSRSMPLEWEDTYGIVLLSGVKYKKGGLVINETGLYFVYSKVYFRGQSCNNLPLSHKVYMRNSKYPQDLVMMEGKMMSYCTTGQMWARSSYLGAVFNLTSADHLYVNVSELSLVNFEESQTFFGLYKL
modifications: biotin (biotin-C5-maleimide) on the extra cysteine; glycosylated
notes: What is left after TEV cleavage: Gly, extra cysteine, isoleucine zipper (IZ) and linker; CD95 ligand (CD95L, Fas ligand, CD178, TNFSF6), human, extracellular domain, amino acids 137-281; also called CD95L-IZ-X; source: HEK293T, transient transfection, secreted; purified (anti-His-tag antibody agarose beads), His-tag cut with TEV protease, labelled with biotin-C5-maleimide; not shown: His8, …
Kd [1]: 0.68 nM

B2
Kd [2]: 11.3 nM

B3: CD95L-IZ-His (His8-TEV-Cys-IZ-CD95L (137-281), secreted form) (ligand)
chain: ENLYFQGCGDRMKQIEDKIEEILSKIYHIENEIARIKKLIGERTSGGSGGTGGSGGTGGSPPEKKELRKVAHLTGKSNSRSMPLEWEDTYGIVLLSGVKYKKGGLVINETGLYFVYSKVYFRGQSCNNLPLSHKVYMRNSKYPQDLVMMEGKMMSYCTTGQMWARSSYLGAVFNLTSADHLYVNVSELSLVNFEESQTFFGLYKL
modifications: glycosylated (the paper suggests three to five N-glycans)
notes: TEV protease site ENLYFQ, extra cysteine, isoleucine zipper (IZ, variant of the GCN4 leucine zipper) and linker; CD95 ligand (CD95L, Fas ligand, CD178, TNFSF6), human, extracellular domain, amino acids 137-281; The natural CD95L part is fused to a designed trimerisation motif; also called CD95L-IZ with His-tag; CD95-IZ-His; source: HEK293T, transient transfection (PEI), secreted into the medium; …
stoichiometry N [3]: 3 and 2
